Tests used:
[1] = target: T1, Mlh1-Mlh3 (Saccharomyces cerevisiae) (UniProt P38920+Q12083); assay: filter binding; conditions: 2 mM Mg2+; Filter binding: 20 mM Tris-HCl pH 7.5, 0.01 mM EDTA, 2 mM MgCl2, 40 ug/mL BSA, 0.1 mM DTT, 15 uM nucleotide DNA, 10 min at 30 C (20 or 150 mM KCl in Fig 4B …)
T1 sequence 1: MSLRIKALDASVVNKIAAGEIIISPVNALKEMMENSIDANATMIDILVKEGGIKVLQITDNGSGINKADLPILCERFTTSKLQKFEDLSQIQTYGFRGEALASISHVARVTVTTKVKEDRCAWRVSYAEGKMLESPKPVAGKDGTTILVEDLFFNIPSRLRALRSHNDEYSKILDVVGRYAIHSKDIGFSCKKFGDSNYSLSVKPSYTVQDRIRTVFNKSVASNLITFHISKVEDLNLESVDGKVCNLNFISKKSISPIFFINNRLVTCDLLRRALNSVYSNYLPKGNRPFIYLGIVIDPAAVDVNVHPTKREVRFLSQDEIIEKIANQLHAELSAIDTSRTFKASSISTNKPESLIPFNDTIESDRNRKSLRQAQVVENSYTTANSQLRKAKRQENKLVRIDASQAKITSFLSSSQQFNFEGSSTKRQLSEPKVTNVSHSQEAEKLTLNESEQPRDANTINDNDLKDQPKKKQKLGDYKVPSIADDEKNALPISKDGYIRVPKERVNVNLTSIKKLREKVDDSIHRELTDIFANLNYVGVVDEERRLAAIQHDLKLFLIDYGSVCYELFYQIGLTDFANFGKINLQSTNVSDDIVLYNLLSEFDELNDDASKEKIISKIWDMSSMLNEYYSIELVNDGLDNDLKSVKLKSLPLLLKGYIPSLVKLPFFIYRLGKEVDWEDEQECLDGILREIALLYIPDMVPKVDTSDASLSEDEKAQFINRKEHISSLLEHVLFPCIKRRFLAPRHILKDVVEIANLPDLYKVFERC
T1 sequence 2: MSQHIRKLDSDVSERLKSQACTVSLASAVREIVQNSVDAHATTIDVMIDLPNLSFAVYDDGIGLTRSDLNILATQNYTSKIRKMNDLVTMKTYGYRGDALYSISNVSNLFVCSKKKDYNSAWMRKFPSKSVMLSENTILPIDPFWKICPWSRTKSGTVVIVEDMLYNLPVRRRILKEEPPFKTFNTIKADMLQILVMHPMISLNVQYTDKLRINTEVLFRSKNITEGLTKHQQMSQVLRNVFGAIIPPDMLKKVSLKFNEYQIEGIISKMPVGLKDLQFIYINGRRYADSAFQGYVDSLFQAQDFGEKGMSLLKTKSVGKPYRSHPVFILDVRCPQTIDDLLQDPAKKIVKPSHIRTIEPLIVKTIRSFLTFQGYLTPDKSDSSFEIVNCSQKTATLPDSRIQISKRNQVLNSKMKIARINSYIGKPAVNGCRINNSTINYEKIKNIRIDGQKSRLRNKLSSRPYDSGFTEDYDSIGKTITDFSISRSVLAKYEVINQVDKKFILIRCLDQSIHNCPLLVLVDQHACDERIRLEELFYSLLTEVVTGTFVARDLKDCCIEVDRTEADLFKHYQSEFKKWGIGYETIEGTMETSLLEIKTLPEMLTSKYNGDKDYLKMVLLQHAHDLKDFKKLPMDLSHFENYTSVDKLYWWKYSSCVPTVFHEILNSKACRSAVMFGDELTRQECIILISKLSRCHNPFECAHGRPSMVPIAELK

[2] = target: Yeast wild-type Mlh1-Mlh3 (yeast (S. cerevisiae)) (UniProt P38920)

Row | Substance | Kd [1] [nM] | amount of nicked product made by Mlh1-Mlh3 on the 7.2 kb +8 loop circular substrate, without and with Msh2-Msh3 (10% without) [2] [%] | amount of nicked product made by Mlh1-Mlh3 on the 7.2 kb homoduplex circular substrate, without and with Msh2-Msh3 (15% without) [2] [%]
1 | 7 kb linear pEAE399 (HindIII) | 65 | – | –
2 | 12 kb linear pEAE99 (HindIII) | 40 | – | –
3 | Yeast Msh2-Msh3 (from UniProt P25847 1-964; P25336 1-1018) (complex) | – | 21 | 36
4 | 2.7 kb linear pUC18 (HindIII) | 100 | – | –

Source: PMC5409509
